Laboratory results: article PMC4339722, “Analysis of the Link between the Redox State and Enzymatic Activity of the HtrA (DegP) Protein from Escherichia coli” (PLoS ONE, 2015)

Target: the molecule itself
Assay: cross-linking + SEC; with 2.5-, 5- or 10-fold molar excess of the 22-peptide …; HtrA variants 10 μM monomer, 15 min 37°C then 10 h 4°C in 20 mM HEPES-NaOH pH 8.0, 100 mM NaCl; BS^3 0.45 mM, 30 min room temperature; Superose 12 10/300 GL, 25°C

B1: HtrA-S210A (oxidized control variant, as used in cross-linking and SEC) (enzyme, Escherichia coli, UniProt P0C0V0 27-474, looked up)
chain: AETSSATTAQQMPSLAPMLEKVMPSVVSINVEGSTTVNTPRMPRNFQQFFGDDSPFCQEGSPFQSSPFCQGGQGGNGGGQQQKFMALGSGVIIDADKGYVVTNNHVVDNATVIKVQLSDGRKFDAKMVGKDPRSDIALIQIQNPKNLTAIKMADSDALRVGDYTVAIGNPFGLGETVTSGIVSALGRSGLNAENYENFIQTDAAINRGNAGGALVNLNGELIGINTAILAPDGGNIGIGFAIPSNMVKNLTSQMVEYGQVKRGELGIMGTELNSELAKAMKVDAQRGAFVSQVLPNSSAAKAGIKAGDVITSLNGKPISSFAALRAQVGTMPVGSKLTLGLLRDGKQVNVNLELQQSSQNQVDSSSIFNGIEGAEMSNKGKDQGVVVNNVKTGTPAAQIGLKKGDVIIGANQQAVKNIAELRKVLDSKPSVLALNIQRGDSTIYLLMQ
modifications: disulfide bond Cys57-Cys69 (oxidized)
notes: HtrA (DegP) serine protease, Escherichia coli; polypeptide chain of 448 residues as printed; also called oxidized control (S210A); control HtrA
  stoichiometry N: 12
